Data set [1] concerns 33-mer gliadin peptide. The data set is described as follows: In vivo endopeptidase activity: co-perfusion of 33-mer and PEP in rat jejunum. As for the experimental part:
FIG. 7. Breakdown and detoxification of 33-mer gliadin peptide with PEP.
FIG. 14. (SEQ ID NO:12) Proteolysis of […] (5 μM) co-perfused with individual PEP's (0.1 μM) in the small intestinal lumen of an anesthetized rat. Each enzyme-substrate mixture was introduced via a catheter into a 15-20 cm segment of the upper jejunum. Samples were collected at the other end of the segment, and analyzed by UV-HPLC (215 nm). The control without any PEP is shown in the top trace.
In accordance with the methods of the invention, a prolyl endopeptidase can catalyze breakdown of this peptide, thereby diminishing its toxic effects. […] The ability of this PEP to clear the 33-mer gliadin peptide was evaluated via in vitro and in vivo experiments.
In Vivo Endopeptidase Activity. An adult (female or male) rat was anesthetized and maintained at 36-37° C. during the entire surgical procedure. The peritoneal cavity was opened, and a small incision was made at the beginning and the end of a 15-20 cm jejunum segment. Polyethylene catheters were inserted and secured into the two ends. The input catheter was connected with a pump-driven syringe filled with a solution. […] The collected digestive products were analyzed by HPLC on a C18 column.
In Vivo Hydrolysis. […] In this live animal model, the impact of concerted action of the perfused (luminal) PEP and the brush border (surface) peptidases is assessed.

The subject of data set [2] is pepsin. The data set is described as follows: Gastric protease stability. It is filed as in vitro ADME. To be noted: 1 mg/ml pepsin, pH 2. Here is the method:
(§1) FIG. 9. Resistance of the FM PEP and the MX PEP to inactivation by gastric and pancreatic enzymes. Pancreatic enzyme stability was evaluated by treating 5 U/ml of the FM PEP and the MX PEP with 1 mg/ml trypsin, 1 mg/ml chymotrypsin, 0.2 mg/ml elastase and 0.2 mg/ml carboxypeptidase A (40 mM phosphate, pH=6.5). Pepsin stability was tested by treating the FM PEP and the MX PEP (5 U/ml) with 1 mg/ml pepsin (pH=2, 20 mM HCl).
(§2) Gastric and Pancreatic Protease Stability. […] Absorption was measured at 410 nm for 1 to 2 min every 10 s to assay residual activity. […] Enzyme activities are expressed as a percentage of the maximum activity, typically observed at the zero time point.
(§3) PEP Stability. […] We therefore evaluated the extent to which the activity of each PEP remains intact after 10 min of incubation at selected pH values between 1.6 and 3.9. […] Since therapeutic efficacy would require a PEP to act upon gluten in conjunction with pancreatic proteases that are secreted into the duodenum, the resistance of FM PEP and MX PEP toward both gastric and pancreatic enzymes was evaluated. For this we pre-incubated the enzymes with physiological quantities of either pepsin (at pH 2) or a cocktail comprising of trypsin, chymotrypsin, elastase and carboxypeptidase A (at pH 6.5).

Data set [3] deals with PQPQLPYPQPQLP and LQLQPFPQPQLPYPQPQLPYPQPQLPYPQPQPF
As to the kind of experiment: Competitive proteolysis of 13-mer and 33-mer by each PEP. The data set is classed as biochemical, wheat. The following applies: 50 μM PQPQLPYPQPQLP, 10 μM 33-mer, 0.1 μM PEP. Here is the method: FIGS. 12A-12C. […] 10 μM of the longer peptide and 50 μM of the shorter peptide were co-incubated with 0.1 μM of (A) FM PEP; (B) MX PEP; (C) SC PEP.
To examine the chain length specificity of individual PEPs, we performed competitive reactions containing both gluten-derived peptides, subjected the reaction mixture to RP-HPLC, and monitored the disappearance of each substrate was monitored as a function of time.

The test system of data set [4] is trypsin, chymotrypsin, elastase and carboxypeptidase A. As to the kind of experiment: Pancreatic protease stability. The data set is classed as in vitro ADME. The following applies: pH 6.5. As for the experimental part:
as §1, §2, §3

B1: PEP: prolyl endopeptidase; Examples 1-2: from Flavobacterium meningosepticum (US Biological); Example 11: source not stated (protein, UniProt P27028 21-705, looked up)
Prolyl endopeptidase: QNSNVLKYPETKKVSHTDTYFGTQVSDPYRWLEDDRAEDTKAWVQQEVKFTQDYLAQIPFRDQLKKQLMDIWNYEKISAPFKKGKYTYFSKNDGLQAQSVLYRKDAAGKTEVFLDPNKFSEKGTTSLASVSFNKKGTLVAYSISEGGSDWNKIIILDAETKKQLDETLLDVKFSGISWLGDEGFFYSSYDKPKEGSVLSGMTDKHKVYFHKLGTKQSQDELIIGGDKFPRRYIGAYVTDDQRYLVVSAANATNGNELYIKDLKNKTDFIPIITGFDSNVNVADTDGDTLYLFTDKDAPNKRLVKTTIQNPKAETWKDVIAETSEPLEINTGGGYFFATYMKDAIDQVKQYDKNGKLVRAIKLPGSGNASGFGGEKTEKDLYYSFTNYITPPTIFKYNVTTGNSEVYQKPKVKFNPENYVSEQVFYTSSDGTKIPMMISYKKGLKKDGKNPTILYSYGGFNISLQPAFSVVNAIWMENGGIYAVPNIRGGGEYGKKWHDAGTKMQKKNVFNDFIAAGEYLQKNGYTSKEYMALSGRSNGGLLVGATMTMRPDLAKVAFPGVGVLDMLRYNKFTAGAGWAYDYGTAEDSKEMFEYLKSYSPVHNVKAGTCYPSTMVITSDHDDRVVPAHSFKFGSELQAKQSCKNPILIRIETNAGHGAGRSTEQVVAENADLLSFALYEMGIKSLK
Regarding B1, the “detoxification (clearance) of the 33-mer gliadin peptide” value in data set [1] (rat BBM and co-perfusion in intact rat intestines) was “this detoxification was demonstrated”.

B2: FM PEP: recombinant prolyl endopeptidase from Flavobacterium meningosepticum (Genbank D10980) (protein)
chain: QNSNVLKYPETKKVSHTDTYFGTQVSDPYRWLEDDRAEDTKAWVQQEVKFTQDYLAQIPFRDQLKKQLMDIWNYEKISAPFKKGKYTYFSKNDGLQAQSVLYRKDAAGKTEVFLDPNKFSEKGTTSLASVSFNKKGTLVAYSISEGGSDWNKIIILDAETKKQLDETLLDVKFSGISWLGDEGFFYSSYDKPKEGSVLSGMTDKHKVYFHKLGTKQSQDELIIGGDKFPRRYIGAYVTDDQRYLVVSAANATNGNELYIKDLKNKTDFIPIITGFDSNVNVADTDGDTLYLFTDKDAPNKRLVKTTIQNPKAETWKDVIAETSEPLEINTGGGYFFATYMKDAIDQVKQYDKNGKLVRAIKLPGSGNASGFGGEKTEKDLYYSFTNYITPPTIFKYNVTTGNSEVYQKPKVKFNPENYVSEQVFYTSSDGTKIPMMISYKKGLKKDGKNPTILYSYGGFNISLQPAFSVVNAIWMENGGIYAVPNIRGGGEYGKKWHDAGTKMQKKNVFNDFIAAGEYLQKNGYTSKEYMALSGRSNGGLLVGATMTMRPDLAKVAFPGVGVLDMLRYNKFTAGAGWAYDYGTAEDSKEMFEYLKSYSPVHNVKAGTCYPSTMVITSDHDDRVVPAHSFKFGSELQAKQSCKNPILIRIETNAGHGAGRSTEQVVAENADLLSFALYEMGIKSLK
With B2, in data set [2], the resistance to pepsin entry is on record as “highly susceptible to pepsin catalyzed proteolysis”. Moreover, in data set [3], the “chain length selectivity, 13-mer vs 33-mer” value is on record as “comparable selectivity for both peptides”. The “breakdown of the 33-mer co-perfused in rat jejunum” value in data set [1] (5 μM 33-mer, 0.1 μM PEP, 15-20 cm segment) is “promoted more complete breakdown of the 33-mer than both the MX and the SC PEP”. The “resistance to pancreatic enzymes” value in data set [4] is “remarkably stable to destruction”.

B3: MX PEP: novel recombinant prolyl endopeptidase from Myxococcus xanthus (Genbank AF127082, SEQ ID NO:47) (protein, listed as Myxococcus xanthus)
chain: MSYPATRAEQVVDTLHGVQVADPYRWLEDEKAPEVQTWMTAQNAHAREALAKFPGREALAARFKELFYTDSVSTPSRRNGRFFYVRTHKDKEKAILYWRQGESGQEKVLLDPNGWSKDGTVSLGTWAVSWDGKKVAFAQKPNAADEAVLHVIDVDSGEWSKVDVIEGGKYATPKWTPDSKGFYYEWLPTDPSIKVDERPGYTTIRYHTLGTEPSKDTVVHERTGDPTTFLQSDLSRDGKYLFVYILRGWSENDVYWKRPGEKDFRLLVKGVGAKYEVHAWKDRFYVLTDEGAPRQRVFEVDPAKPARASWKEIVPEDSSASLLSVSIVGGHLSLEYLKDATSEVRVATLKGKPVRTVQLPGVGAASNLMGLEDLDDAYYVFTSFTTPRQIYKTSVSTGKSELWAKVDVPMNPEQYQVEQVFYASKDGTKVPMFVVHRKDLKRDGNAPTLLYGYGGFNVNMEANFRSSILPWLDAGGVYAVANLRGGGEYGKAWHDAGRLDKKQNVFDDFHAAAEYLVQQKYTQPKRLAIYGGSNGGLLVGAAMTQRPELYGAVVCAVPLLDMVRYHLFGSGRTWIPEYGTAEKPEDFKTLHAYSPYHHVRPDVRYPALLMMAADHDDRVDPMHARKFVAAVQNSPGNPATALLRIEANAGHGGADQVAKAIESSVDLYSFLFQVLDVQGAQGGVAAQGR
Consider B3, for which the resistance to pepsin entry in data set [2] is “highly susceptible to pepsin catalyzed proteolysis”. Besides, in data set [3], the “chain length selectivity, 13-mer vs 33-mer” value was “clear preference for the 13-mer peptide”. In addition, the “resistance to pancreatic enzymes” value in data set [4] was “remarkably stable to destruction”.

Source of the values: patent US8796201B2 (The Board of Trustees of the Leland Stanford Junior …, priority 2002, dated 2014).
